Results reported in publication PMC12450465, “Oligomerization and exocyst coupling underlie Spa2-mediated focusing of polarized growth in fission yeast” (Journal of Cell Science, 2025).
Values belong to the binder of their own block, whether it stands above or below them.

B2: His6–Pos1 (natural protein, S. pombe, UniProt O13743 1-269, looked up)
chain: MAFSPANSFLINKSICESKEVEPLEANLFGKLHNKLLICKAKKENLEKKLAYQMMYSKLLKSLPKLSSLEENKLTKLKAPIEDMENTKKELEEIRKQSTETELRYLKSLSNTLSFGTLSLSNEINKVGPSASFMLKEVHDSVQVLEQRLEKMGLIEKPSESSESSIYSILASLKHTNDSLQKKELSPHEIAESPSSHSTSPMGRNVDTETLSFLLIDWQRLCAEQNTFLRDITNNMSSSVPQDVLSQLRQFFFRSELLSDKLSNLCSES
notes: Pos1, S. pombe; also called His6-tagged Pos1; source: Rosetta2(DE3)pLysS bacteria (pETDuet); alone: purified on nickel magnetic beads; not shown: His6, N-terminal, kept
B3: FLAG–Spa2(200–360) (domain or fragment, S. pombe, UniProt O42869 200-360, looked up)
chain: NTVQANNSSTSSLSQGAQTGIDSSSNYLSRIEMLESSLAKSNSLLDSSKSEMEALKAKSISDATKHKNEIFQLEEKLHEASHEAEISIKKLNDAENRIKELENNPTLSFNPELEKNLKLMQELIVAESSKTQHIVELESCIDSLKAETERWKKVAINAKSA
notes: also called Spa2(200–360)–FLAG

How the values were obtained:
MBP–Pos1 = molecular target: T1, MBP–Pos1 (S. pombe, UniProt O13743 1-269); experiment: pull-down; GST proteins left on beads, incubated with eluted MBP proteins in GST buffer for 40 min at 4°C; washed three times; SDS-PAGE, Coomassie Blue; details: both partners purified
T1 construct: Pos1, S. pombe; source: Rosetta2(DE3)pLysS bacteria, purified on amylose beads, eluted with 10 mM maltose; not shown: MBP, N-terminal, kept
T1 sequence (looked up): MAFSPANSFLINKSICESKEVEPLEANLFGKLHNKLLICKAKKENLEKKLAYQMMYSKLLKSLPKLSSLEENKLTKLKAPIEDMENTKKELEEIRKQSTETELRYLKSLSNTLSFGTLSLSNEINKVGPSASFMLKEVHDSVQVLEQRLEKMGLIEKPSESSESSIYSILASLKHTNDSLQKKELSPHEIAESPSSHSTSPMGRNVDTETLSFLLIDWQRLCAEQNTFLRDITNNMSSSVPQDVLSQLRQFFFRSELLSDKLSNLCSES

FLAG–Spa2(200–360) = molecular target: B3; experiment: pull-down; co-purification: His6–Pos1 and FLAG–Spa2(200–360) co-produced in bacteria with a dual expression system, purified on DYKDDDDK Fab-Trap agarose, eluted with 3×FLAG peptide; SDS-PAGE, Coomassie Blue; details: partners not purified
His6–Pos1 = molecular target: B2; experiment: SEC; Superose 6 10/300 GL, 0.5 ml/min, 4°C, 10 mM Tris-HCl pH 7.5, 150 mM NaCl, 0.5 mM EDTA; each protein alone or the co-purified complex; sizes estimated from calibration standards; details: both partners purified

- binding result (MBP–Pos1): binds
B1: GST–Spa2(305–360) (domain or fragment, S. pombe, UniProt O42869 305-360, looked up)
chain: TLSFNPELEKNLKLMQELIVAESSKTQHIVELESCIDSLKAETERWKKVAINAKSA
notes: not shown: GST, N-terminal, kept

Binder: B2
- stoichiometry N (FLAG–Spa2(200–360)): ~1

Binder: B3
- binding result (His6–Pos1): binds
